Reference: the domain aggregation screens of Martell et al. (2025)

Test: soluble fraction after stress (log2 fold change); higher = more stays soluble; pooled small domains, quantitative proteomics
Details: stress: 75 degC
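Also: 20 min heating vs room temperature control held 20 min.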

| Sequence | soluble fraction (log2) |
| --- | --- |
| HMAEMLQDVLNMLSAKDREILVRYYYYYESVKQVAAEMQMSESAVKMRMSRARKKMQQELIDKG | -4.61 |
| HMAEPAEDLLSLEGMDKGLAYQLASNGVVTREDLAELATDDLLEIREMDAEQAAALIMKAREHWFEAEQQ | 0.755 |
| HMAEPEALLAMAQRILGEEVAQSLFQGAAREQGKEGYLPDPTPAFLDALEARLSGSVGAATAHAMISQLVG | -0.15 |
| HMAEPSTSYTQFMDQAKEGKIKRVDVQGRTLTVTPTEGATYKITAPGDLWMVEDLRKAGVQVYGQP | 0.29 |
| HMAEPYDERKVMEQMIPKGKNTIVAHLGHLKDHGETGYLQEALSYLRERESELGFDLKEVRALVHN | 0.365 |
| HMAEQVLHQKLAARRKELNSLVAQVARVRGIPHSHVHSGLRREAGGPPLAQATTDQVEARISLARKWLRA | -1.47 |
| HMAERLQARIDAPGVRLDKALAETFPTLSRARLQALLADGAVTRDGQTVSNGSAKAQPGLYVVALPPVA | 0.385 |
| HMAESNQIQLSDVREALNMIGPASWLDLVHYLDTGKGRGGQRLRRMLKSLSRSGEIELVARGTYQITDN | -0.437 |
| HMAEVALFVNGSDVNLRSGPGQESTRVIGSLNLGDEVRIKSQNGQWREVYVPKTRQVGWVAHWLLSEAPP | -0.535 |
| HMAEVPDLRNKTQQEAEAELTNHNLKLGNVTEEYSATVEAGRVISQSTSYGTKVLEGSSVDITISKGPEPT | 0.135 |
| HMAEWLFDARKIPDEVMNYLRRIAVQAIEEKHYSPELVADLLGISRSSIYDWLNWYRNGGEEDLDTRKA | -1.53 |
| HMAFAQMAQEAAKGKDDFNDLRQEMEAVIKEQPHILLMAQFGQNPYEIAYQEAKRRKAQDQQQQQ | 0.877 |
| HMAFGTGTVTASSLRVREDASTSAATLDTLSKGSKVSVLADEQDGFYKVQIGEQVGYMSAEYLDVTE | 0.00175 |
| HMAFKNGLLQTSKKVTLVRKVDGVTMRFDSLRAASVFLGRNKGYLSNVIKNGRTLDNYEIVVGE | -1.04 |
| HMAFRIGGFVQEGSVVRQQDGGTVRFEVTDTAHSVPVTYKGSLPDLFKEGKGVVAQGKLMNGTFVADQVLA | 0.165 |
| HMAGATDTVRNLLERQIREGELLPGQRLPTEPELAARLGVSRNSLREALQSLEDSGLIVKRHGIGTFVTE | 0.0985 |
| HMAGLELVVTREQAGRTVKSLLRGELGISTALMGRLKRTGTGLTVNGTRVFTNAVLREGDRLAVDLDAAE | -1.35 |
| HMAGLKERLFYFIEYKGLTVQSFEKTVGLSNGAVSKMGDNTRRSTIDKISNFFGDLNKNWLLTGEGEMLI | -2.98 |
| HMAGRKMMVMANNLSVRKSANSLSEKLADLSRGDTVEYISSTNGWNKVRYKGQIGYVSSYYLKDTGEEVE | -0.562 |
| HMAGTKRAENIEIQKLTEVLEARLDSVGFFWPDHKAESMIMTLRNMISRLPLTEADVRVFHGIIKSLADK | -0.486 |
| HMAGTWQDQGNGQWKYQNDDGSYATGWIEDSGKSYYLDANGIMLANTTTPDGKQVGPDGALIP | -0.15 |
| HMAHETIDVAALRVGMFVQLDLGWLSHPFPLSSFRISSEDQIATIRALGLKRVRWSSEQSDS | -4.58 |
| HMAHPRTHEALNPLWEKYLGPNAGNDFFLSGGTSLKALMFLKDLEKTLNKRIAIHAFFKDPTYEHVVSD | -0.84 |
| HMAHTGGNTLTREKAVSVRSASDALLFEIHWNETPREDILSTREEKVDGKTYSIITIRTGKGREDHYYLLS | -1.35 |
| HMAHYPGKVNNELVEFIRSEQRKTPHMTLTGLNRKLQRTYDLTLSESTVRKLVEAETILPLAREPD | -0.25 |
| HMAIDLPVTTVNGKDYYYYDVQPKETIFSLSQRLGISREEIISYNPGVDGGLKAYTRLYFPVESGL | -1.21 |
| HMAIDLSLIPGNLLRELHGAVEDGDMYRIRELIRSISAVDEKVGKELLLLAERYDYERLLELVND | -0.887 |
| HMAIDWVQIKAEYISGTMSASKLAEKHGVSVYAIRKRSGKERWQELRRQNQSETANKIAEKI | -2.16 |
| HMAIDYYQTLINLGYKLQDRGDYWQTSAIHRGGDNPTALQIYKNTGVWKDYVSGGGFKPFKALVEKSD | -0.944 |
| HMAIELTPRQLDIIELVRKHAPITGEQIAELLGVTRPSIRSDLGLLVMLGYIDAKPKVGYFAGPRM | -1.16 |
